These are literature values, as cited in patent US20010028895A1, “Methods of treating alzheimer's disease” (priority 2000, published 2001).

For data set [1] the following is noted: among the eight 22-mer domains of apo A-I.
For data set [2] the following is noted: among the eight 22-mer domains of apo A-I. This is another data set of the same source.
The conditions of data set [3]: among the eight 22-mer domains of apo A-I. The source holds these as a separate data set.
For data set [4] the following is noted: among the eight 22-mer domains of apo A-I. The source holds these as a separate data set.

For “220-241: synthesized C-terminal 22-mer amphipathic domain of human apo A-I, residues 220-241 (PVLESFKVSFLSALEEYTKKLN; UniProt P02647 244-265, looked up, fragment)”, in data set [1], the “reduction in the enthalpy of the gel-to-liquid crystalline phase transition of DMPC MLVs” value is listed as “greatest reduction”. For the same substance, the “clarifying multilamellar vesicles of DMPC” value in data set [2] is on record as “effective”. Further, the “partition coefficient into POPC liposomes” value in data set [3] is given as “highest partition coefficient”. The “exclusion pressure for penetration into egg yolk phosphatidylcholine monolayer” value in data set [4] is recorded as “highest exclusion pressure”.
Take “44-65: synthesized N-terminal 22-mer amphipathic domain of human apo A-I, residues 44-65 (LKLLDNWDSVTSTFSKLREQLG; UniProt P02647 68-89, looked up, fragment)”: in data set [1], the “reduction in the enthalpy of the gel-to-liquid crystalline phase transition of DMPC MLVs” value was “greatest reduction”. Moreover, the “clarifying multilamellar vesicles of DMPC” value in data set [2] is reported as “effective”. Further, the “partition coefficient into POPC liposomes” value in data set [3] is given as “highest partition coefficient”. In data set [4], the “exclusion pressure for penetration into egg yolk phosphatidylcholine monolayer” value is reported as “highest exclusion pressure”.
